According to patent US20190142971A1, “FORMULATION AND DELIVERY OF MODIFIED NUCLEOSIDE, NUCLEOTIDE, AND NUCLEIC ACID COMPOSITIONS” (ModernaTX, Inc., priority 2013, published 2019):

Legend:
human PBMC = experiment: Example 45: PBMC transfection, IFN-alpha ELISA (Table 72); assay type: cell-based
Description: The plates were then incubated at 37 C.
Each condition was done in duplicate.
Shown in Tables 71 and 72 are the average from 2 separate PBMC donors of the G-CSF and IFN-alpha production over time as measured by specific ELISA.

HEK293 cells = experiment: Example 46B: percent modification, HEK293 G-CSF ELISA (Table 75); assay type: cell-based, Human

B1: G-CSF: modified mRNA encoding human G-CSF, SEQ ID NO: 4, Cap1, fully modified with 5-methylcytosine and pseudouridine; LNP-formulated in Examples 16-22 (nucleic acid)
chain: GGGAAAUAAGAGAGAAAAGAAGAGUAAGAAGAAAUAUAAGAGCCACCAUGGCCGGUCCCGCGACCCAAAGCCCCAUGAAACUUAUGGCCCUGCAGUUGCUGCUUUGGCACUCGGCCCUCUGGACAGUCCAAGAAGCGACUCCUCUCGGACCUGCCUCAUCGUUGCCGCAGUCAUUCCUUUUGAAGUGUCUGGAGCAGGUGCGAAAGAUUCAGGGCGAUGGAGCCGCACUCCAAGAGAAGCUCUGCGCGACAUACAAACUUUGCCAUCCCGAGGAGCUCGUACUGCUCGGGCACAGCUUGGGGAUUCCCUGGGCUCCUCUCUCGUCCUGUCCGUCGCAGGCUUUGCAGUUGGCAGGGUGCCUUUCCCAGCUCCACUCCGGUUUGUUCUUGUAUCAGGGACUGCUGCAAGCCCUUGAGGGAAUCUCGCCAGAAUUGGGCCCGACGCUGGACACGUUGCAGCUCGACGUGGCGGAUUUCGCAACAACCAUCUGGCAGCAGAUGGAGGAACUGGGGAUGGCACCCGCGCUGCAGCCCACGCAGGGGGCAAUGCCGGCCUUUGCGUCCGCGUUUCAGCGCAGGGCGGGUGGAGUCCUCGUAGCGAGCCACCUUCAAUCAUUUUUGGAAGUCUCGUACCGGGUGCUGAGACAUCUUGCGCAGCCGUGAAGCGCUGCCUUCUGCGGGGCUUGCCUUCUGGCCAUGCCCUUCUUCUCUCCCUUGCACCUGUACCUCUUGGUCUUUGAAUAAAGCCUGAGUAGGAAG
modifications: Cap1, 5-methylcytosine, pseudouridine
Human PBMC
  IFN-alpha / cytokine production: induced IFN-alpha, TNF-alpha and IP10
HEK293 cells
  half-life of mRNA: 8 to 10 h
